# B1: Copia^GagΔNC (domain or fragment)
# chain: not shown
# notes: Copia retrotransposon Gag, Drosophila, capsid (CA) region only; residue H186 mutated to a stop codon in the pSMT3_His6-SUMO-Copia^Gag+PR plasmid, so the chain ends at residue 185 and lacks the NC (Zn-finger) domain; also called Copia^gag-ΔNC variant; not shown: His6-SUMO, N-terminal, cleaved
# B2: Copia^Gag capsid protein (wild type), auto-processed from His6-SUMO-Copia^Gag+PR (natural protein)
# chain: not shown
# notes: Copia retrotransposon Gag (capsid CA, residues 1-186, and nucleocapsid NC, residues 186-270), Drosophila; product of auto-processing of the short spliced form Copia^Gag+PR, whose protease part is cut off in E. coli; Limits 1-270 put together from the stated CA (1-186) and NC (186-270) domains; the cleavage site between Gag and PR is not otherwise stated; Carries co-purified RNA unless this is …
# Columns and labels:
# [1] = biological target: B2; experiment: SEC; Superose 6 Increase 10/300 GL after overnight Ulp1 digestion; 25 mM HEPES pH 7.4, 150 mM NaCl, 10% glycerol, 100 uM ZnCl2, 500 mM imidazole, 2 mM 2-mercaptoethanol; assembled capsids elute at fraction 7, unassembled protein at fractions 24 to 26; conditions: both partners purified
# [2] = biological target: the molecule itself; experiment: negative-stain EM; purified Copia^Gag after removal of His6-SUMO, with co-purified RNA, 0.8 mg/ml, 1% uranyl acetate; capsid-like particles of 30 nm to more than 120 nm
binder,measurement,setting,value
B1,binding result,[1],binds
B2,binding result,[2],binds

# Source: paper PMC11835246, “Capsid transfer of the retrotransposon Copia controls structural synaptic plasticity in Drosophila” (PLOS Biology, 2025)
